# T1: AFP p26 (human, UniProt P02771 381-609)
# T1 construct: The construct used is not described
# T1 sequence: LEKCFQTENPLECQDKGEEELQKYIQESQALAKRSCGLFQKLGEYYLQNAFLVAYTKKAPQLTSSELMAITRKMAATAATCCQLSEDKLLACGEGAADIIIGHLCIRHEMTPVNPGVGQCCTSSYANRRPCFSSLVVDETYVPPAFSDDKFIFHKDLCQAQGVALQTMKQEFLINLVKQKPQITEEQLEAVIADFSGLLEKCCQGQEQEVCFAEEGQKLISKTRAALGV
# B1: SEQ ID NO 820 (designed binder)
# chain: MGSWLYFKYNLAVIKHWLEALGGSEAELAIFEMSIADFEYELQWYKGKGNPEVEALRKEAAAIRDELQAYRHN
# B2: SEQ ID NO 821 (designed binder)
# chain: MGSWFYFKYELAWIKHWLEALGGSEAELASFETHIAFFEHQLQYYKGKGNPEVEALRKEAAAIRDELQAYRHN
# B3: SEQ ID NO 822 (designed binder)
# chain: MGSWADFKWTLAYIKHRLEALGGSEAELAFFEMEIAYFEQSLQNYKGKGNPEVEALRKEAAAIRDELQAYRHN
# B4: SEQ ID NO 823 (designed binder)
# chain: MGSWAYFKGQLAYIKSGLEALGGSEAELAYFELRIAYFEHWLQNYKGKGNPEVEALRKEAAAIRDELQAYRHN
# B5: SEQ ID NO 824 (designed binder)
# chain: MGSWENFKDTLAWIKEYLEALGGSEAELAGFEHRIAIFEHYLQYYKGKGNPEVEALRKEAAAIRDELQAYRHN
# B6: SEQ ID NO 825 (designed binder)
# chain: MGSWVLFKDYLADIKHYLEALGGSEAELANFEHLIANFEGDLQTYKGKGNPEVEALRKEAAAIRDELQAYRHN
# B7: SEQ ID NO 826 (designed binder)
# chain: MGSWSLFKHRLANIKVYLEALGGSEAELADFETFIAYFEKDLQEYKGKGNPEVEALRKEAAAIRDELQAYRHN
# B8: SEQ ID NO 827 (designed binder)
# chain: MGSWEHFKVELAGIKAYLEALGGSEAELALFEWAIADFESILQDYKGKGNPEVEALRKEAAAIRDELQAYRHN
# B9: SEQ ID NO 828 (designed binder)
# chain: MGSWIYFKDELAGIKKYLEALGGSEAELAMFEVAIADFEAILQKYKGKGNPEVEALRKEAAAIRDELQAYRHN
# B10: SEQ ID NO 829 (designed binder)
# chain: MGSWVLFKQELAWIKWLLEALGGSEAELAAFEEQIARFEHDLQKYKGKGNPEVEALRKEAAAIRDELQAYRHN
# B11: SEQ ID NO 830 (designed binder)
# chain: MGSWVLFKQELAWIKWYLEALGGSEAELAAFEWEIAAFEQRLQIYKGKGNPEVEALRKEAAAIRDELQAYRHN
# B12: SEQ ID NO 831 (designed binder)
# chain: MGSWFLFKSELAWIKWRLEALGGSEAELAYFEYQIAEFEFWLQSYKGKGNPEVEALRKEAAAIRDELQAYRHN
# B13: SEQ ID NO 832 (designed binder)
# chain: MGSWLLFKSELAWIKWYLEALGGSEAELAEFEWNIAEFEKNLQKYKGKGNPEVEALRKEAAAIRDELQAYRHN
# B14: SEQ ID NO 833 (designed binder)
# chain: MGSWLLFKSDLAWIKWRLEALGGSEAELAEFEESIAMFEHWLQEYKGKGNPEVEALRKEAAAIRDELQAYRHN
# B15: SEQ ID NO 834 (designed binder)
# chain: MGSWLYFKSDLAWIKWRLEALGGSEAELADFEEAIAEFEQALQIYKGKGNPEVEALRKEAAAIRDELQAYRHN
# B16: SEQ ID NO 835 (designed binder)
# chain: MGSWKLFKYELAWIKWRLEALGGSEAELADFEASIAQFEKYLQTYKGKGNPEVEALRKEAAAIRDELQAYRHN
# B17: SEQ ID NO 836 (designed binder)
# chain: MGSWYLFKNELAWIKWRLEALGGSEAELADFEMVIAMFEDHLQEYKGKGNPEVEALRKEAAAIRDELQAYRHN
# B18: SEQ ID NO 837 (designed binder)
# chain: MGSWVYFKAHLAFIKWELEALGGSEAELANFESTIAEFEKYLQVYKGKGNPEVEALRKEAAAIRDELQAYRHN
# B19: SEQ ID NO 838 (designed binder)
# chain: MGSWMYFKSHLAWIKWELEALGGSEAELAFFEDNIAQFEYWLQLYKGKGNPEVEALRKEAAAIRDELQAYRHN
# B20: SEQ ID NO 839 (designed binder)
# chain: MGSWTLFKWDLAFIKWQLEALGGSEAELAWFEYEIAAFEDSLQNYKGKGNPEVEALRKEAAAIRDELQAYRHN
# B21: SEQ ID NO 840 (designed binder)
# chain: MGSWILFKEDLAFIKWQLEALGGSEAELAWFETTIANFESDLQKYKGKGNPEVEALRKEAAAIRDELQAYRHN
# B22: SEQ ID NO 841 (designed binder)
# chain: MGSWYFFKSRLAYIKVYLEALGGSEAELAGFEWEIAHFEEWLQRYKGKGNPEVEALRKEAAAIRDELQAYRHN
# B23: SEQ ID NO 842 (designed binder)
# chain: MGSWYIFKSELAWIKWYLEALGGSEAELANFEVEIATFETWLQGYKGKGNPEVEALRKEAAAIRDELQAYRHN
# B24: SEQ ID NO 843 (designed binder)
# chain: MGSWYIFKQELASIKLSLEALGGSEAELAHFEAEIAWFEWWLQWYKGKGNPEVEALRKEAAAIRDELQAYRHN
# B25: SEQ ID NO 844 (designed binder)
# chain: MGSWVRFKTELAYIKESLEALGGSEAELAMFESEIAIFEHSLQTYKGKGNPEVEALRKEAAAIRDELQAYRHN
# B26: SEQ ID NO 845 (designed binder)
# chain: MGSWYLFKTELAAIKYRLEALGGSEAELASFEYEIAWFEHILQFYKGKGNPEVEALRKEAAAIRDELQAYRHN
# B27: SEQ ID NO 846 (designed binder)
# chain: MGSWYWFKYELAEIKWHLEALGGSEAELAHFEHSIAVFESQLQQYKGKGNPEVEALRKEAAAIRDELQAYRHN
# B28: SEQ ID NO 847 (designed binder)
# chain: MGSWWVFKKTLAEIKWTLEALGGSEAELAYFEAEIAFFEFILQQYKGKGNPEVEALRKEAAAIRDELQAYRHN
# B29: SEQ ID NO 855 (designed binder)
# chain: MGSWTHFKEDLAHIKDRLEALGGSEAELAAFELDIAWFEFMLQYYKGKGNPEVEALRKEAAAIRDELQAYRHN
# B30: SEQ ID NO 848 (designed binder)
# chain: MGSWVYFKDHLAEIKSQLEALGGSEAELALFEYDIAWFEFILQYYKGKGNPEVEALRKEAAAIRDELQAYRHN
# B31: SEQ ID NO 849 (designed binder)
# chain: MGSWVYFKHRLAEIKDQLEALGGSEAELAEFETDIAWFEWMLQYYKGKGNPEVEALRKEAAAIRDELQAYRHN
# B32: SEQ ID NO 853 (designed binder)
# chain: MGSWLAFKEDLAHIKSILEALGGSEAELAEFEHDIAWFEYMLQYYKGKGNPEVEALRKEAAAIRDELQAYRHN
# B33: SEQ ID NO 854 (designed binder)
# chain: MGSWFVFKEDLAGIKFILEALGGSEAELAMFETDIAWFEYMLQYYKGKGNPEVEALRKEAAAIRDELQAYRHN
# B34: SEQ ID NO 856 (designed binder)
# chain: MGSWYYFKERLAAIKDRLEALGGSEAELAIFEADIAWFEFMLQYYKGKGNPEVEALRKEAAAIRDELQAYRHN
# B35: SEQ ID NO 850 (designed binder)
# chain: MGSWIIFKTDLARIKNYLEALGGSEAELATFERDIAWFEFMLQIYKGKGNPEVEALRKEAAAIRDELQAYRHN
# B36: SEQ ID NO 862 (designed binder)
# chain: MGSWSIFKQDLADIKDSLEALGGSEAELAMFEMDIAWFEHTLQYYKGKGNPEVEALRKEAAAIRDELQAYRHN
# B37: SEQ ID NO 851 (designed binder)
# chain: MGSWMHFKQDLAEIKGYLEALGGSEAELAIFEMDIAWFEYMLQYYKGKGNPEVEALRKEAAAIRDELQAYRHN
# B38: SEQ ID NO 852 (designed binder)
# chain: MGSWQIFKQDLAAIKDYLEALGGSEAELAIFEFDIAWFEHMLQWYKGKGNPEVEALRKEAAAIRDELQAYRHN
# B39: SEQ ID NO 859 (designed binder)
# chain: MGSWVLFKQDLAMIKQRLEALGGSEAELAMFEYDIAWFEHMLQYYKGKGNPEVEALRKEAAAIRDELQAYRHN
# B40: SEQ ID NO 860 (designed binder)
# chain: MGSWVEFKRDLANIKQRLEALGGSEAELAQFEMQIAWFEHTLQYYKGKGNPEVEALRKEAAAIRDELQAYRHN
# B41: SEQ ID NO 861 (designed binder)
# chain: MGSWSYFKEDLANIKSSLEALGGSEAELAWFESSIAWFEHTLQYYKGKGNPEVEALRKEAAAIRDELQAYRHN
# B42: SEQ ID NO 864 (designed binder)
# chain: MGSWSIFKDDLAVIKERLEALGGSEAELAHFEQDIAWFEHLLQYYKGKGNPEVEALRKEAAAIRDELQAYRHN
# Molecular target: T1, AFP p26
# Assay: phage ELISA, A450 target/A450 IgG1-Fc
# Summary of the method: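 Phage were rescued in 96-well format with VCSM13 helper phage from individual phagemid colonies picked from panning output. Plates were coated with 1.3 microg/ml goat anti-human IgG1-Fc antibody, then 5 nM recombinant human target or IgG1-Fc, then 50 microl phage diluted 5× in ELISA blocking buffer. Binding was detected with HRP-conjugated anti-M13 antibody at 450 nm. The ELISA ratio is target over IgG1-Fc absorbance, averaged across all screened wells holding that clone.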
row,Binder,ELISA_avg [ratio]
1,B1,13.3
2,B2,13.7
3,B3,31.5
4,B4,11.4
5,B5,19.2
6,B6,13.8
7,B7,19.6
8,B8,18.1
9,B9,15.9
10,B10,29.5
11,B11,22.5
12,B12,25.8
13,B13,25.7
14,B14,33.3
15,B15,21.2
16,B16,23.4
17,B17,31.1
18,B18,20.8
19,B19,19.8
20,B20,12.1
21,B21,23.3

row,Binder,ELISA_avg [ratio]
1,B22,30.1
2,B23,29.6
3,B24,19.4
4,B25,20.5
5,B26,20.1
6,B27,21.5
7,B28,18.6
8,B29,30.4
9,B30,22.1
10,B31,11.1
11,B32,18.6
12,B33,14.2
13,B34,31.5
14,B35,16.7
15,B36,16.6
16,B37,18.9
17,B38,17.4
18,B39,29.7
19,B40,30.4
20,B41,11.6
21,B42,25.6

# From patent publication US20230125550A1 (ARCELLX, published 2023)
